Experimental findings from patent publication US20250145710A1 (published 2025) are described below.

The target of one experiment is T1, human CLDN6 (human, UniProt P56747 1-220).
T1 chain: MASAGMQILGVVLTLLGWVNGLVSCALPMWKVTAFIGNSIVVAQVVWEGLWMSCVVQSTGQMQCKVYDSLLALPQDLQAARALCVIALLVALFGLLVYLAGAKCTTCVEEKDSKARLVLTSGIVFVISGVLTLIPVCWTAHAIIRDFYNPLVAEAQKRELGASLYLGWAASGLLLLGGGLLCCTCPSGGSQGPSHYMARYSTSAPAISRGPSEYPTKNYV
As to the kind of experiment: flow cytometry cell binding. On the technique in general: Flow cytometry measures light scatter and fluorescence of single cells or particles in a stream.

The target of a further experiment is human CD3 (UniProt P07766 23-207; P04234 22-171; P09693 23-182). Kind of experiment: flow cytometry cell binding.

Substitutions are numbered along the chain they refer to.

human CD3, sequence (P07766 23-207, chain 1 of 3): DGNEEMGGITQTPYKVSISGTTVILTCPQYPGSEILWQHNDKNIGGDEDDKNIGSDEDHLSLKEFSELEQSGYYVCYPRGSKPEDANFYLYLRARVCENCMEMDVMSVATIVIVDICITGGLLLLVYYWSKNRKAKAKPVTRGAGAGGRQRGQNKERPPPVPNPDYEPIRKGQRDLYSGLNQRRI
human CD3, sequence (P04234 22-171, chain 2 of 3): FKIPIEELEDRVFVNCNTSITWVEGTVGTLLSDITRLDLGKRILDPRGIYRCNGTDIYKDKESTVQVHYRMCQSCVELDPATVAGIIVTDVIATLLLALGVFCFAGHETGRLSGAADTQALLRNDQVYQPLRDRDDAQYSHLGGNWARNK
human CD3, sequence (P09693 23-182, chain 3 of 3): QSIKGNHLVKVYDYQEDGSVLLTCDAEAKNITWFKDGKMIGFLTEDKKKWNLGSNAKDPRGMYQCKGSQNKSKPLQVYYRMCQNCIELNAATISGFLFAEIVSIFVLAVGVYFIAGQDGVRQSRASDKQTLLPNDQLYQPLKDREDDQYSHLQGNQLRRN

B1: IMC-21-1 IgG-(scFv)2 antibody (bispecific antibody)
heavy: not shown
light: SYELTQPPSVSVSPGQTARITCSAGSGLYGWYQQKPGQAPVLVIYGTNKRPSGIPERFSGSSSGTTVTLTISGVQAEDEADYYCGSADSSTNAGIFGGGTKLTVLGQPKAAPSVTLFPPSSEELQANKATLVCLISDFYPGAVTVAWKADSSPVKAGVETTTPSKQSNNKYAASSYLSLTPEQWKSHRSYSCQVTHEGSTVEKTVAPTECS
Usually EC50 stands for the concentration that produces a half-maximal response. A higher EC50 goes with weaker potency. For the molecule B1, the 50% effective concentration (EC50) with human CLDN6 was determined as 7.2 nM; in the experiment with human CD3, 53.6 nM.

B2: IMC-16-15 scFv-Fab IgG antibody (bispecific antibody)
heavy: EVQLLESGGGLVQPGGSLRLSCAASGFTFSSYAMNWVRQAPGKGLEWVAGISSSGRYTGYADSVKGRFTISRDNSKNTLYLQMNSLRAEDTAVYYCAKSMGSGVSWSGYVATSIDVWGQGTLVTVSSASTKGPSVFPLAPSSKSTSGGTAALGCLVKDYFPEPVTVSWNSGALTSGVHTFPAVLQSSGLYSLSSVVTVPSSSLGTQTYICNVNHKPSNTKVDKKVEPKSCDKTHTCPPCPAPEAAGGPSVFLFPPKPKDTLMISRTPEVTCVVVDVSHEDPEVKFNWYVDGVEVHNAKTKPREEQYNSTYRVVSVLTVLHQDWLNGKEYKCKVSNKALPAPIEKTISKAKGQPREPQVYTLPPSREEMTKNQVSLWCLVKGFYPSDIAVEWESNGQPENNYKTTPPVLDSDGSFFLYSKLTVDKSRWQQGNVFSCSVMHEALHNHYTQKSLSLSPGK
light: B1 light
scFv: EVQLVESGGGLVQPGGSLRLSCAASGFTFSTYAMNWVRQAPGKGLEWVGRIRSKYNNYATYYADSVKGRFTISRDDSKNTLYLQMNSLRAEDTAVYYCVRHGNFGDSYVSWFAYWGQGTLVTVSSGKPGSGKPGSGKPGSGKPGSQAVVTQEPSLTVSPGGTVTLTCGSSTGAVTTSNYANWVQQKPGKSPRGLIGGTNKRAPGVPARFSGSLLGGKAALTISGAQPEDEADYYCALWYSNHWVFGGGTKLTVLASPKSSDKTHTCPPCPAPEAAGGPSVFLFPPKPKDTLMISRTPEVTCVVVDVSHEDPEVKFNWYVDGVEVHNAKTKPREEQYNSTYRVVSVLTVLHQDWLNGKEYKCKVSNKALPAPIEKTISKAKGQPREPQVYTLPPSREEMTKNQVSLSCAVKGFYPSDIAVEWESNGQPENNYKTTPPVLDSDGSFFLVSKLTVDKSRWQQGNVFSCSVMHEALHNHYTQKSLSLSPGK
Turning to B2, the results for the EC50 with human CLDN6 and with human CD3 were 24.1 nM and 2.62 nM, respectively.

B3: IMC-16-3 scFv-Fab IgG antibody (bispecific antibody)
heavy: B2 heavy with M100V, I114L, V116A
light: B1 light
scFv: B2 scFv
Consider B3, for which the EC50 is 13.7 nM with human CLDN6 and 3.46 nM with human CD3.

B4: IMC-2-7 tandem scFv antibody (bispecific antibody)
scFv: SYELTQPPSVSVSPGQTARITCSAGSGLYGWYQQKPGQAPVLVIYGTNKRPSGIPERFSGSSSGTTVTLTISGVQAEDEADYYCGSADSSTNAGIFGGGTKLTVLGGGGSGGGGSGGGGSEVQLLESGGGLVQPGGSLRLSCAASGFTFSSYAMNWVRQAPGKGLEWVAGISSSGRYTGYADSVKGRFTISRDNSKNTLYLQMNSLRAEDTAVYYCAKSVGSGVSWSGYVATSLDAWGQGTLVTVSSGGGGSEVQLVESGGGLVQPGGSLRLSCAASGFTFSTYAMNWVRQAPGKGLEWVGRIRSKYNNYATYYADSVKGRFTISRDDSKNTLYLQMNSLRAEDTAVYYCVRHGNFGDSYVSWFAYWGQGTLVTVSSGKPGSGKPGSGKPGSGKPGSQAVVTQEPSLTVSPGGTVTLTCGSSTGAVTTSNYANWVQQKPGKSPRGLIGGTNKRAPGVPARFSGSLLGGKAALTISGAQPEDEADYYCALWYSNHWVFGGGTKLTVL
As to B4, the concentration for a half-maximal effect (EC50) was 40.5 nM with human CLDN6 and 7.3 nM with human CD3.
